Experimental data as given in publication PMC7949148.

Experiments:
[1] = biological target: Trypanosoma brucei FoF1–ATP synthase complex (Trypanosoma brucei (endogenous in PCF and BSF cells)); assay: native gel or EMSA; blue native electrophoresis of DDM-lysed (2% PCF, 4% BSF) mitochondria, 3 to 12% native gradient gel, 4 °C; Western blot with antibodies against subunit β and Tb2; cells noninduced or with Tb1 or OSCP silenced or ablated
[2] = biological target: Trypanosoma brucei FoF1–ATP synthase complex (Trypanosoma brucei (endogenous in PCF and BSF cells)); assay: native gel or EMSA; high-resolution clear native electrophoresis of digitonin-lysed (4 mg/mg protein) crude mitochondrial vesicles from PCF and BSF parasites, 3 to 12% native gradient gel, 4 °C; Western blot with antibodies against p18 and Tb1

Trypanosoma brucei FoF1–ATP synthase complex
stoichiometry N [1]: 2
stoichiometry N [2]: 2
